From US9593156B2 (priority 2012, dated 2017)
Ends that are not written are not given here.

Experiments:
[1] = target: T1, type A insulin receptor (IR-A) (Homo sapiens, UniProt P06213); experiment: Receptor kinase activity (phosphorylation) assay, type A insulin receptor; type: cell-based
T1 construct: expressed in transfected cells; host or cells: HEK293

[2] = target: T2, type B insulin receptor (IR-B) (Homo sapiens, UniProt P06213); experiment: Receptor kinase activity (phosphorylation) assay, type B insulin receptor; type: cell-based
T2 construct: expressed in transfected cells; host or cells: HEK293

IGF-1 receptor = IGF-1 receptor (Homo sapiens, UniProt P08069); experiment: IGF-1 receptor competition binding assay (scintillation proximity); set-up: expressed in transfected cells; plasma membrane fragments; settings: Table 9; IGF-1 Receptor
Sequence of IGF-1 receptor (P08069 31-736 limits assumed): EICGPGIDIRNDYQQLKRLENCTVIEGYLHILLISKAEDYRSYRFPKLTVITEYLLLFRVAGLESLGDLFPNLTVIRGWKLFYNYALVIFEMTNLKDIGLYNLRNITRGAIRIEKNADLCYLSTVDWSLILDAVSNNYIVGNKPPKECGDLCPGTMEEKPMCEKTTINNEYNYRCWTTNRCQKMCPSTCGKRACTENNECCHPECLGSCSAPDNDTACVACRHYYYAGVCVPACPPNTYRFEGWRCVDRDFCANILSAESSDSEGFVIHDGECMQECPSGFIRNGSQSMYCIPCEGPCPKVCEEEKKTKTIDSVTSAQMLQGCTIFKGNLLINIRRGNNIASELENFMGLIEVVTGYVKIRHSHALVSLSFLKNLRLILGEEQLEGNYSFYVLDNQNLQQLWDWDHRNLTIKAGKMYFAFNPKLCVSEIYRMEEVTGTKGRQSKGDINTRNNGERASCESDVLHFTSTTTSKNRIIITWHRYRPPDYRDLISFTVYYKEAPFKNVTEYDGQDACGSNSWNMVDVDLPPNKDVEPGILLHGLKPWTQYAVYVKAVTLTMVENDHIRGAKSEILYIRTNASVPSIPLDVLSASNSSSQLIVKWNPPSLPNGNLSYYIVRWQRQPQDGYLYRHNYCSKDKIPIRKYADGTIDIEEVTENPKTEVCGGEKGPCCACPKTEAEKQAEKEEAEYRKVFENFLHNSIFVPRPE
Sequence of IGF-1 receptor (P08069 741-1367 partner limits assumed): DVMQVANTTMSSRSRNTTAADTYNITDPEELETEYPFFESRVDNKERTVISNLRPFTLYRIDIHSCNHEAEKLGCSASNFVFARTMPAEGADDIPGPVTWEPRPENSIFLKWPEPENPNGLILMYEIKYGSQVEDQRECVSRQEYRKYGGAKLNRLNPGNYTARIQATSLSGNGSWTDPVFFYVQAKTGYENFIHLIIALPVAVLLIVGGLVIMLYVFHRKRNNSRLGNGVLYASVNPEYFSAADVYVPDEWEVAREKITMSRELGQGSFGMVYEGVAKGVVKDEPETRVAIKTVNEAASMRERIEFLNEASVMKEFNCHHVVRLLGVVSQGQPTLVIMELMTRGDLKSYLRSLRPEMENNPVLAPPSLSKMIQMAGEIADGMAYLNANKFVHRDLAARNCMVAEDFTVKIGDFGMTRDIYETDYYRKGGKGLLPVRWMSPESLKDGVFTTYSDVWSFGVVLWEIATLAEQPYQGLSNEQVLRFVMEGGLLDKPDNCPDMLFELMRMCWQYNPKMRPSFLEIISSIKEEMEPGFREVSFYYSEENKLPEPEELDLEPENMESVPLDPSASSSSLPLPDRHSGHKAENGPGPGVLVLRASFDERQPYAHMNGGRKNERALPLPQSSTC

insulin receptor = insulin receptor (Homo sapiens, UniProt P06213); experiment: Insulin receptor competition binding assay (scintillation proximity); set-up: expressed in transfected cells; plasma membrane fragments

B1-PEG20K MIU-35 (GPEHLCGAHLVDALYLVCGDRGFYGYGSSSRRAPQTGIVDECCHRSCDLRRLENYCN; not fully specified (N-terminus); ends and bridges not checked; also: PEG20K at B1) [#39]
% Insulin Activity IR-A ([1]; Table 12): 3.1% | IR-A ([1]; Table 13): 4.5% | Phosphorylation (EC50) % IR-A ([1]; Table 17): 4.5% | % Insulin Activity IR-B ([2]; Table 12): 1.1% | IR-B ([2]; Table 13): 1.1% | Phosphorylation (EC50) % IR-B ([2]; Table 17): 1.1%

B^1(H5,10Y16L17R29)30-C^1des9-12-A^1(H8,K14,N18,21) (GPEHLCGAHLVDALYLVCGDRGFYFNKRTGYGSSSRRGIVDECCHRSCDLKRLENYCN) [DP8Mut3KA14]
IR-A ([1]; Table 14): 132.2% | IR-B ([2]; Table 14): 12.6%

CC[C@H](C)[C@H](NC(=O)CN)C(=O)N[C@H](C(=O)N[C@@H](CC(=O)O)C(=O)N[C@@H](CCC(=O)O)C(=O)N[C@H]1CSSC[C@@H]2NC(=O)[C@H](CO)NC(=O)[C@H](CCCNC(=N)N)NC(=O)[C@H](Cc3ccccc3)NC(=O)[C@H](CSSC[C@H](NC(=O)[C@H](CC(C)C)NC(=O)[C@@H](NC(=O)[C@H](CCC(=O)O)NC(=O)[C@@H]3CCCN3C(=O)CN)[C@@H](C)O)C(=O)NCC(=O)N[C@@H](C)C(=O)N[C@@H](CCC(=O)O)C(=O)N[C@@H](CC(C)C)C(=O)N[C@@H](C(C)C)C(=O)N[C@@H](CC(=O)O)C(=O)N[C@@H](C)C(=O)N[C@@H](CC(C)C)C(=O)N[C@@H](Cc3ccc(O)cc3)C(=O)N[C@@H](CC(C)C)C(=O)N[C@@H](C(C)C)C(=O)N[C@H](C(=O)NCC(=O)N[C@@H](CC(=O)O)C(=O)N[C@@H](CCCNC(=N)N)C(=O)NCC(=O)N[C@@H](Cc3ccccc3)C(=O)N[C@@H](Cc3ccc(O)cc3)C(N)=O)CSSC[C@@H](C(=O)N[C@@H](C)C(N)=O)NC(=O)[C@H](Cc3ccc(O)cc3)NC(=O)[C@H](CCSC)NC(=O)[C@H](CCC(=O)O)NC(=O)[C@H](CC(C)C)NC(=O)[C@H](CCCNC(=N)N)NC(=O)[C@H](CCCNC(=N)N)NC(=O)[C@H](CC(C)C)NC(=O)[C@H](CC(=O)O)NC2=O)NC1=O)C(C)C [IGF-1 A:B (E10Y16L17) DPI]
% IGF-1 (in test) (IGF-1 receptor): 3.3%

CC[C@H](C)[C@H](NC(=O)CN)C(=O)N[C@H](C(=O)N[C@@H](CC(=O)O)C(=O)N[C@@H](CCC(=O)O)C(=O)N[C@H]1CSSC[C@@H]2NC(=O)[C@H](CO)NC(=O)[C@H](CCCNC(=N)N)NC(=O)[C@H](Cc3ccccc3)NC(=O)[C@H](CSSC[C@H](NC(=O)[C@H](CC(C)C)NC(=O)[C@@H](NC(=O)[C@H](CCC(=O)O)NC(=O)[C@@H]3CCCN3C(=O)CN)[C@@H](C)O)C(=O)NCC(=O)N[C@@H](C)C(=O)N[C@@H](CCC(=O)O)C(=O)N[C@@H](CC(C)C)C(=O)N[C@@H](C(C)C)C(=O)N[C@@H](CC(=O)O)C(=O)N[C@@H](C)C(=O)N[C@@H](CC(C)C)C(=O)N[C@@H](Cc3ccc(O)cc3)C(=O)N[C@@H](CC(C)C)C(=O)N[C@@H](C(C)C)C(=O)N[C@H](C(=O)NCC(=O)N[C@@H](CC(=O)O)C(=O)N[C@@H](CCCNC(=N)N)C(=O)NCC(=O)N[C@@H](Cc3ccccc3)C(=O)N[C@@H](Cc3ccc(O)cc3)C(=O)N[C@@H](Cc3ccccc3)C(=O)N[C@@H](CC(N)=O)C(=O)N[C@@H](CCCCN)C(=O)N3CCC[C@H]3C(=O)N[C@H](C(N)=O)[C@@H](C)O)CSSC[C@@H](C(=O)N[C@@H](C)C(N)=O)NC(=O)[C@H](Cc3ccc(N)cc3)NC(=O)[C@H](CCSC)NC(=O)[C@H](CCC(=O)O)NC(=O)[C@H](CC(C)C)NC(=O)[C@H](CCCNC(=N)N)NC(=O)[C@H](CCCNC(=N)N)NC(=O)[C@H](CC(C)C)NC(=O)[C@H](CC(=O)O)NC2=O)NC1=O)C(C)C [IGF1 (Y^B16L^B17) (p-NH2—F)^A19 amide]
% of Insulin Activity (insulin receptor; Table 7): 22%

B^1(H5,10Y16L17K29)29:A^1(H8,N18,21) (chain 1 GPEHLCGAHLVDALYLVCGDRGFYFNKK; chain 2 GIVDECCHRSCDLRRLENYCN) [DP3(TC)]
IR-A ([1]; Table 14): 159.8% | IR-B ([2]; Table 14): 33.1%

B^1(H5,10Y16L17)25-C^1-A^1(T8N18,21) (GPEHLCGAHLVDALYLVCGDRGFYGYGSSSRRAPQTGIVDECCTRSCDLRRLENYCN) [Thr,A8]
IR-A ([1]; Table 13): 20.4% | IR-B ([2]; Table 13): 8.4%

CC[C@H](C)[C@H](NC(=O)CN)C(=O)N[C@H](C(=O)N[C@@H](CC(=O)O)C(=O)N[C@@H](CCC(=O)O)C(=O)N[C@H]1CSSC[C@@H]2NC(=O)[C@H](CO)NC(=O)[C@H](CCCNC(=N)N)NC(=O)[C@H](Cc3ccccc3)NC(=O)[C@H](CSSC[C@H](NC(=O)[C@H](CC(C)C)NC(=O)[C@@H](NC(=O)[C@H](CCC(=O)O)NC(=O)[C@@H]3CCCN3C(=O)CN)[C@@H](C)O)C(=O)NCC(=O)N[C@@H](C)C(=O)N[C@@H](CCC(=O)O)C(=O)N[C@@H](CC(C)C)C(=O)N[C@@H](C(C)C)C(=O)N[C@@H](CC(=O)O)C(=O)N[C@@H](C)C(=O)N[C@@H](CC(C)C)C(=O)N[C@@H](Cc3ccc(O)cc3)C(=O)N[C@@H](CC(C)C)C(=O)N[C@@H](C(C)C)C(=O)N[C@H](C(=O)NCC(=O)N[C@@H](CC(=O)O)C(=O)N[C@@H](CCCNC(=N)N)C(=O)NCC(=O)N[C@@H](Cc3ccccc3)C(=O)N[C@@H](Cc3ccc(O)cc3)C(=O)N[C@@H](Cc3ccccc3)C(=O)N[C@@H](CC(N)=O)C(=O)N[C@@H](CCCCN)C(=O)N3CCC[C@H]3C(=O)N[C@H](C(N)=O)[C@@H](C)O)CSSC[C@@H](C(=O)N[C@@H](C)C(N)=O)NC(=O)[C@H](Cc3ccc(O)cc3)NC(=O)[C@H](CCSC)NC(=O)[C@H](CCC(=O)O)NC(=O)[C@H](CC(C)C)NC(=O)[C@H](CCCNC(=N)N)NC(=O)[C@H](CCCNC(=N)N)NC(=O)[C@H](CC(C)C)NC(=O)[C@H](CC(=O)O)NC2=O)NC1=O)C(C)C [IGF1 (Y^B16L^B17)]
% of Insulin Activity (insulin receptor; Table 6): 262%

CC[C@H](C)[C@H](NC(=O)CN)C(=O)N[C@H](C(=O)N[C@@H](CC(=O)O)C(=O)N[C@@H](CCC(=O)O)C(=O)N[C@H]1CSSC[C@@H]2NC(=O)[C@H](CO)NC(=O)[C@H](CCCNC(=N)N)NC(=O)[C@H](Cc3ccccc3)NC(=O)[C@H](CSSC[C@H](NC(=O)[C@H](CC(C)C)NC(=O)[C@H](Cc3c[nH]cn3)NC(=O)[C@H](CCC(N)=O)NC(=O)[C@H](CC(N)=O)NC(=O)[C@@H](NC(=O)[C@@H](N)Cc3ccccc3)C(C)C)C(=O)NCC(=O)N[C@@H](CO)C(=O)N[C@@H](Cc3c[nH]cn3)C(=O)N[C@@H](CC(C)C)C(=O)N[C@@H](C(C)C)C(=O)N[C@@H](CCC(=O)O)C(=O)N[C@@H](C)C(=O)N[C@@H](CC(C)C)C(=O)N[C@@H](Cc3ccc(O)cc3)C(=O)N[C@@H](CC(C)C)C(=O)N[C@@H](C(C)C)C(=O)N[C@H](C(=O)NCC(=O)N[C@@H](CC(=O)O)C(=O)N[C@@H](CCCNC(=N)N)C(=O)NCC(=O)N[C@@H](Cc3ccccc3)C(=O)N[C@@H](Cc3ccc(O)cc3)C(=O)N[C@@H](Cc3ccccc3)C(=O)N[C@@H](CC(N)=O)C(=O)N[C@@H](CCCCN)C(=O)N3CCC[C@H]3C(=O)N[C@H](C(N)=O)[C@@H](C)O)CSSC[C@@H](C(=O)N[C@@H](C)C(N)=O)NC(=O)[C@H](Cc3ccc(O)cc3)NC(=O)[C@H](CCSC)NC(=O)[C@H](CCC(=O)O)NC(=O)[C@H](CC(C)C)NC(=O)[C@H](CCCNC(=N)N)NC(=O)[C@H](CCCNC(=N)N)NC(=O)[C@H](CC(C)C)NC(=O)[C@H](CC(=O)O)NC2=O)NC1=O)C(C)C [IGF-1 A:In (1-17)-IGF-1 B(18-30)]
IC80 (IGF-1 receptor): 62.5 nM

B^1(H5,10Y16L17K29)29-A^1(H8,N18,21) (GPEHLCGAHLVDALYLVCGDRGFYFNKKGIVDECCHRSCDLRRLENYCN) [DP3(SC)]
IR-A ([1]; Table 14): 0.03%

CC[C@H](C)[C@H](NC(=O)CN)C(=O)N[C@H](C(=O)N[C@@H](CC(=O)O)C(=O)N[C@@H](CCC(=O)O)C(=O)N[C@H]1CSSC[C@@H]2NC(=O)[C@H](CO)NC(=O)[C@H](CCCNC(=N)N)NC(=O)[C@H](Cc3ccccc3)NC(=O)[C@H](CSSC[C@H](NC(=O)[C@H](CC(C)C)NC(=O)[C@H](Cc3c[nH]cn3)NC(=O)[C@H](CCC(N)=O)NC(=O)[C@H](CC(N)=O)NC(=O)[C@@H](NC(=O)[C@@H](N)Cc3ccccc3)C(C)C)C(=O)NCC(=O)N[C@@H](C)C(=O)N[C@@H](CCC(=O)O)C(=O)N[C@@H](CC(C)C)C(=O)N[C@@H](C(C)C)C(=O)N[C@@H](CC(=O)O)C(=O)N[C@@H](C)C(=O)N[C@@H](CC(C)C)C(=O)N[C@@H](Cc3ccc(O)cc3)C(=O)N[C@@H](CC(C)C)C(=O)N[C@@H](C(C)C)C(=O)N[C@H](C(=O)NCC(=O)N[C@@H](CC(=O)O)C(=O)N[C@@H](CCCNC(=N)N)C(=O)NCC(=O)N[C@@H](Cc3ccccc3)C(=O)N[C@@H](Cc3ccc(O)cc3)C(=O)N[C@@H](Cc3ccccc3)C(=O)N[C@@H](CC(N)=O)C(=O)N[C@@H](CCCCN)C(=O)N3CCC[C@H]3C(=O)N[C@H](C(N)=O)[C@@H](C)O)CSSC[C@@H](C(=O)N[C@@H](C)C(N)=O)NC(=O)[C@H](Cc3ccc(O)cc3)NC(=O)[C@H](CCSC)NC(=O)[C@H](CCC(=O)O)NC(=O)[C@H](CC(C)C)NC(=O)[C@H](CCCNC(=N)N)NC(=O)[C@H](CCCNC(=N)N)NC(=O)[C@H](CC(C)C)NC(=O)[C@H](CC(=O)O)NC2=O)NC1=O)C(C)C [IGF-1 A:In B(1-5)-IGF-1 B(YL) (6-30)]
% IGF-1 (in test) (IGF-1 receptor): 3.6%

B1,A14-10K B^1(H5,10Y16L17R29)30-C^1des9-12-A^1(H8,K14,N18,21) (GPEHLCGAHLVDALYLVCGDRGFYFNKRTGYGSSSRRGIVDECCHRSCDLKRLENYCN) [MIU-79]
IR-A ([1]; Table 14): 1.7% | IR-B ([2]; Table 14): 0.2%

B1,A14-10K B^1(H5,10Y16L17R29)29:A^1(H8K14N18,21) (chain 1 GPEHLCGAHLVDALYLVCGDRGFYFNKR; chain 2 GIVDECCHRSCDLKRLENYCN) [di-10K-TC]
IR-A ([1]; Table 14): 6.4% | IR-B ([2]; Table 14): 2.1%

B1: GE5W-B^1(H5,10Y16L17)25-C^1-A^1(A1H8N18,21) (protein)
chain: GEEEEEWGPEHLCGAHLVDALYLVCGDRGFYGYGSSSRRAPQTAIVDECCHRSCDLRRLENYCN
IR-A ([1]; Table 13): 2.1% | IR-B ([2]; Table 13): 0.7%
